In paper PMC10328853, “Design and preclinical evaluation of a novel apelin-based PET radiotracer targeting APJ receptor for molecular imaging of angiogenesis” (Angiogenesis, 2023):

What was measured:
[1] = test system: APJ; details: cited from earlier work
Description: In this context, we identified the apelin/APJ system as a relevant molecular target for angiogenesis imaging because of its implication in blood vessels formation by sprouting. The APJ receptor also known as APLNR and AGTRL1 is a class A G-protein-coupled receptor. Apelin is an endogenous ligand of this receptor. The Apelin/APJ system is described as implicated in different pathologies. High levels of APJ mRNA and protein are found respectively in endothelial cells through vessel formation and on sprouting vessels of hypoxic tissues and tumor-associated endothel ...

[2] = in vivo; details: male, Swiss, mouse, iv, 4.45 MBq, total radioactivity
Procedure: The quantified PET signal in organs was presented as mean ± SD percentage of the decay-corrected injected dose (%ID). Acquisition of small animal dynamic PET/CT was performed for 120 min on a NanoScan PET/CT camera (Mediso, Budapest, Hungary) under 2% isoflurane in medical air anesthesia [PET parameters: numbers of iterations: 4, coincidence: 1–3, field of view (FOV): 10 cm]. CT parameters were fixed at 35 kV voltage, 300 ms exposure at medium zoom, acquired by semi-circular method on the same FOV as PET. CT attenuation-corrected reconstruction was performed using Nucline software (Mediso, Budapest, Hungary) on the following time frames: 0–5 min, 6–10 min, 11–15 min, 16–20 min, 21–25 min, 26–30 min, 31–45 min, 46–60 min, 61–75 min, 76–90 min, 91–105 min, and 106–120 min.

[3] = mouse, in vivo, iv
Procedure: Blood was collected at 2, 5, 10, 15, 20, 30, 45, 60, 75, 90, 105, and 120 min post-injection and gamma counted with decay correction. Plasmatic half-life (t1/2) was estimated by nonlinear regression. At two hours post-injection, mice were euthanatized and the main organs (heart, liver, lungs, muscle, brain, spleen, intestines, bone, pancreas, and kidneys) were collected, washed in PBS, weighted, and gamma counted. Results were decay corrected and expressed as percentage of injected dose corrected by organ weight (%ID/g).

[4] = in vivo; details: Pietrain, pig, 85 MBq, total radioactivity
Procedure: Attenuation-corrected images were reconstructed using ADW software v4.6 (GE Healthcare, Chicago, Illinois, USA), and PET signal quantifications were performed on CT-based manually drawn volumes of interest (VOIs) using VivoQuant software v.3.5 (InVicro, Boston, MA, USA). Results were decay corrected and expressed as mean ± sd percentage of the injected dose (%ID).

[5] = target: T1, APJ on T84 cells (Homo sapiens, UniProt P35414); experiment: In vitro specificity of [68Ga]Ga-AP747 by autoradiography, with and without excess apelin-F13A; assay type: cell-based; details: 1 h incubation, n = 6
T1 construct: endogenous in cells; host or cells: T84 human colon adenocarcinoma cells
T1 sequence (P35414 1-380): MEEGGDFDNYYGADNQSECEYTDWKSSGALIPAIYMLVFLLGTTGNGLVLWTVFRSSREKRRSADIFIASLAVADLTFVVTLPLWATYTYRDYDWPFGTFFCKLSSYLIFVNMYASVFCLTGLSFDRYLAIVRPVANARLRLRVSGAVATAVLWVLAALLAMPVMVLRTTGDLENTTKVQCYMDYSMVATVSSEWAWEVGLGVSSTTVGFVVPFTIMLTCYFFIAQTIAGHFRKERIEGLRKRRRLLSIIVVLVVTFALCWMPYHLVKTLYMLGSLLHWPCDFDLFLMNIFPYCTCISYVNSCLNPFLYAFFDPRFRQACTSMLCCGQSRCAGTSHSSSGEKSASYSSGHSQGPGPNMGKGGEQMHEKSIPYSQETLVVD
Procedure: T84 cells were seeded at a 1.10^6 cells per well density in 24-well plates (Corning, Corning, USA) and incubated overnight with a complete medium. […] After a 1 h incubation, the medium was removed and the cells were washed 3 times with PBS (Eurobio-scientific, Les Ulis, France) and their viability assessed.

[6] = test system: hindlimb ischemia mouse model; experiment: Longitudinal PET/CT follow-up in the hindlimb ischemia mouse model; assay type: in vivo; details: HLI mice, day 7, PET 1 h after i.v. injection, n = 8
Description: Unilateral hindlimb ischemia (HLI) was induced on 9-week-old female Swiss mice (Janvier Labs, n = 8) after femoral artery excision under 2% isoflurane anesthesia as previously described. LASER Doppler perfusion imaging (Perimed, Craponne, France) was used to assess revascularization from day 0 to day 21 after surgery. Perfusion measurements were expressed as an ischemic-to-contralateral ratio of hind limb blood flow normalized to the day of surgery. […] Small animal PET imaging acquisition lasted 20 min (numbers of iterations: 4, coincidence: 1–3) using a field of view (FOV) of 10 cm. CT parameters were fixed at 35 kV voltage, 300 ms exposure at medium zoom, acquired by semi-circular method on the same FOV as PET. CT attenuation-corrected reconstruction was performed using Nucline software (Mediso, Budapest, Hungary). Tissue uptake values were expressed as a target-to-background (Matrigel-to-muscle) or as an ischemic-to-contralateral hindlimb PET signal ratio.

[7] = target: T2, APJ in T84 tumors (Homo sapiens, UniProt P35414); experiment: In vivo specificity of PET signal, T84 colon adenocarcinoma xenograft mice, baseline or APJ-blocking; set-up: species or system mouse; details: PET 1 h p.i., n = 3
T2 construct: Mice bearing ectopic colon adenocarcinoma xenograft; from tissue; host or cells: T84 xenograft tumour in Swiss nude mice
T2 sequence (P35414 1-380): T1 sequence (P35414 1-380)
Procedure: Human colon adenocarcinoma xenografts were established by subcutaneous dorsal injections of 1.10^6 T84 cells (100 µL, PBS) to 6-week-old male Swiss nude mice (Charles River, Saint-Germain-Nuelles, France, n = 3) under 2% isoflurane anesthesia.
(§1) Small animal PET imaging acquisition lasted 20 min (number of iterations: 4, coincidence: 1–3) using a field of view (FOV) of 10 cm. CT parameters were fixed at 35 kV voltage, 300 ms exposure at medium zoom, acquired by semi-circular method on the same FOV as PET. CT attenuation-corrected reconstruction was performed using Nucline software (Mediso, Budapest, Hungary). […] Tissue uptake values were expressed as a mean target-to-background PET signal ratio (TBRmean) with background represented by the left gastrocnemius muscle.

[8] = test system: Matrigel plug mouse model; experiment: Longitudinal PET/CT follow-up in the Matrigel plug mouse model; assay type: in vivo; details: Matrigel mice, n = 7
Procedure: Matrigel plugs were established by subcutaneous dorsal injections of 300 µL Matrigel (Dutscher, Bernolsheim, France) supplemented with 10% fetal bovine serum, to 9-week-old male Swiss mice (Janvier Labs, Le Genest-Saint-Isle, France, n = 12) under 2% isoflurane anesthesia. Seven Matrigel mice underwent small animal PET follow-up, and five others were involved in the in vivo specificity study as described below. […] Small animal PET imaging acquisition lasted 20 min (numbers of iterations: 4, coincidence: 1–3) using a field of view (FOV) of 10 cm. CT parameters were fixed at 35 kV voltage, 300 ms exposure at medium zoom, acquired by semi-circular method on the same FOV as PET. CT attenuation-corrected reconstruction was performed using Nucline software (Mediso, Budapest, Hungary). Tissue uptake values were expressed as a target-to-background (Matrigel-to-muscle) or as an ischemic-to-contralateral hindlimb PET signal ratio.

[9] = target: T3, APJ in Matrigel plug (Mus musculus, UniProt Q9WV08); experiment: In vivo specificity of PET signal, Matrigel plug mice, baseline or APJ-blocking; details: PET 1 h p.i., n = 5
T3 construct: probably related to avascular and acellular contents of Matrigel; from tissue; host or cells: Subcutaneous Matrigel plug in male Swiss mice
T3 sequence (Q9WV08 1-377): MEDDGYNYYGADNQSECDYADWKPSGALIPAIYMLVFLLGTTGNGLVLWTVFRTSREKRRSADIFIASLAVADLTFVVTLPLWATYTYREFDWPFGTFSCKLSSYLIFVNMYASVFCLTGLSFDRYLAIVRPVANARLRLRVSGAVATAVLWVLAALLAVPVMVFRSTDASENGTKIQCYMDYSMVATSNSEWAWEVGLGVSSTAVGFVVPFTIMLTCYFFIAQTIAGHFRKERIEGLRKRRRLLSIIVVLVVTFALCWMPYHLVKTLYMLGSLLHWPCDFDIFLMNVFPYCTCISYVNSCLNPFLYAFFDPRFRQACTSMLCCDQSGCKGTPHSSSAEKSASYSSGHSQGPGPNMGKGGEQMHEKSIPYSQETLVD
Procedure: Matrigel plugs were established by subcutaneous dorsal injections of 300 µL Matrigel (Dutscher, Bernolsheim, France) supplemented with 10% fetal bovine serum, to 9-week-old male Swiss mice (Janvier Labs, Le Genest-Saint-Isle, France, n = 12) under 2% isoflurane anesthesia. Seven Matrigel mice underwent small animal PET follow-up, and five others were involved in the in vivo specificity study as described below.
as §1

[10] = 100X apelin-F13A (100 µg) i.v. 30 min before tracer

[Ala13]-Apelin-13 [apelin-F13A]
affinity for APJ [1]: nanomolar affinity

CSCC[C@H](NC(=O)[C@@H]1CCCN1C(=O)CNC(=O)[C@H](CCCCNC(=O)CCC(C(=O)O)N1CCN(CC(=O)O)CCN(CC(=O)O)CC1)NC(=O)[C@H](Cc1c[nH]cn1)NC(=O)[C@H](CO)NC(=O)[C@H](CC(C)C)NC(=O)[C@H](CCCNC(=N)N)NC(=O)[C@@H]1CCCN1C(=O)[C@H](CCCNC(=N)N)NC(=O)[C@H](CCC(N)=O)NC(=O)CCC(C(=O)O)N1CCN(CC(=O)O)CCN(CC(=O)O)CC1)C(=O)N1CCC[C@H]1C(=O)N[C@@H](C)C(=O)O (some centres unmarked) [[^68Ga]Ga-AP747, metal not drawn]
tissue uptake dose at 2 h ([2]; PET signal in bladder): 88.3 ± 5 %ID
tissue uptake dose at 2 h ([2]; PET signal in brain): 0.02 ± 0.001 %ID
tissue uptake dose at 2 h ([2]; PET signal in kidneys): 1.04 ± 0.2 %ID
tissue uptake dose at 2 h ([2]; PET signal in liver): 0.35 ± 0.03 %ID
tissue uptake dose at 2 h ([2]; PET signal in lungs): 0.06 ± 0.02 %ID
Plasmatic half-life (t1/2) [3]: 13.31 min
tissue uptake dose at 2 h ([4]; PET signal in bladder): 39.4 ± 8.54 %ID
tissue uptake dose at 2 h ([4]; PET signal in brain): 0.037 ± 0.015 %ID
tissue uptake dose at 2 h ([4]; PET signal in heart): 0.58 ± 0.16 %ID
tissue uptake dose at 2 h ([4]; PET signal in kidneys): 3.98 ± 0.79 %ID
tissue uptake dose at 2 h ([4]; PET signal in liver): 1.42 ± 0.34 %ID
tissue uptake dose at 2 h ([4]; PET signal in lungs): 1.39 ± 0.46 %ID
cell-to-background autoradiography signal ratio, non-blocked ([5]; 1.7 MBq/10 µL per well): 1.40 ± 0.38
cell-to-background autoradiography signal ratio, blocking ([5]; large excess of apelin-F13A added 10 min before tracer): 0.50 ± 0.23
i/c (ischemic-to-contralateral hindlimb) PET signal ratio [6]: 5.49 ± 5.97
PET tumor-to-muscle ratio, blocking [7, 10]: 1.02 ± 0.31
PET tumor-to-muscle ratio, non-blocked ([7]; i.v.): 7.93 ± 2.17
target-to-background (Matrigel-to-muscle) PET signal ([8]; day 10, PET 1 h after i.v. injection): 3.78 ± 2.11
target-to-background (Matrigel-to-muscle) PET signal ([8]; day 13, PET 1 h after i.v. injection): 4.86 ± 2.49
target-to-background (Matrigel-to-muscle) PET signal ([8]; day 21, PET 1 h after i.v. injection): 5.00 ± 3.04
PET Matrigel-to-muscle ratio, blocking [9, 10]: 2.35 ± 0.62
PET Matrigel-to-muscle ratio, non-blocked ([9]; i.v.): 7.29 ± 3.14
